# B1: FLAG-CNF1 truncation mutant 190-1014 (C1) (domain or fragment)
# chain: RSDNISLLFFDIYGYYASDIFVAKNNDKVMLFIPGAKKPFLFKKNIADLRLTLKELIKDSDKQQLLSQHFSLYSRQDGVSYAGVNSVLHAIENDGNFNESYFLYSNKTLSNKDVFDAIAISVKKRSFSDGDIVIKSNSEAQRDYALTILQTILSMTPIFDIVVPEVSVPLGLGIITSSMGISFDQLINGDTYEERRSAIPGLATNAVLLGLSFAIPLLISKAGINQEVLSSVINNEGRTLNETNIDIFLKEYGIAEDSISSTNLLDVKLKSSGQHVNIVKLSDEDNQIVAVKGSSLSGIYYEVDIETGYEILSRRIYRTEYNNEILWTRGGGLKGGQPFDFESLNIPVFFKDEPYSAVTGSPLSFINDDSSLLYPDTNPKLPQPTSEMDIVNYVKGSGSFGDRFVTLMRGATEEEAWNIASYHTAGGSTEELHEILLGQGPQSSLGFTEYTSNVNSADAASRRHFLVVIKVHVKYITNNNVSYVNHWAIPDEAPVEVLAVVDRRFNFPEPSTPPDISTIRKLLSLRYFKESIESTSKSNFQKLSRGNIDVLKGRGSISSTRQRAIYPYFEAANADEQQPLFFYIKKDRFDNHGYDQYFYDNTVGLNGIPTLNTYTGEIPSDSSSLGSTYWKKYNLTNETSIIRVSNSARGANGIKIALEEVQEGKPVIITSGNLSGCTTIVARKEGYIYKVHTGTTKSLAGFTSTTGVKKAVEVLELLTKEPIPRVEGIMSNDFLVDYLSENFEDSLITYSSSEKKPDSQITIIRDNVSVFPYFLDNIPEHGFGTSATVLVRVDGNVVVRSLSESYSLNADASEISVLKVFSKKF
# notes: source: recombinant, purified
# B2: MYC-JAK1 truncation mutant 1-544 (domain or fragment)
# chain: MQYLNIKEDCNAMAFCAKMRSSKKTEVNLEAPEPGVEVIFYLSDREPLRLGSGEYTAEELCIRAAQACRISPLCHNLFALYDENTKLWYAPNRTITVDDKMSLRLHYRMRFYFTNWHGTNDNEQSVWRHSPKKQKNGYEKKKIPDATPLLDASSLEYLFAQGQYDLVKCLAPIRDPKTEQDGHDIENECLGMAVLAISHYAMMKKMQLPELPKDISYKRYIPETLNKSIRQRNLLTRMRINNVFKDFLKEFNNKTICDSSVSTHDLKVKYLATLETLTKHYGAEIFETSMLLISSENEMNWFHSNDGGNVLYYEVMVTGNLGIQWRHKPNVVSVEKEKNKLKRKKLENKHKKDEEKNKIREEWNNFSYFPEITHIVIKESVVSINKQDNKKMELKLSSHEEALSFVSLVDGYFRLTADAHHYLCTDVAPPLIVHNIQNGCHGPICTEYAINKLRQEGSEEGMYVLRWSCTDFDNILMTVTCFEKSEQVQGAQKQFKNFQIEVQKGRYSLHGSDRSFPSLGDLMSHLKKQILRTDNISFMLKRCC
# notes: source: recombinant, purified
# B3: MYC-JAK1 truncation mutant 1-855 (domain or fragment)
# chain: MQYLNIKEDCNAMAFCAKMRSSKKTEVNLEAPEPGVEVIFYLSDREPLRLGSGEYTAEELCIRAAQACRISPLCHNLFALYDENTKLWYAPNRTITVDDKMSLRLHYRMRFYFTNWHGTNDNEQSVWRHSPKKQKNGYEKKKIPDATPLLDASSLEYLFAQGQYDLVKCLAPIRDPKTEQDGHDIENECLGMAVLAISHYAMMKKMQLPELPKDISYKRYIPETLNKSIRQRNLLTRMRINNVFKDFLKEFNNKTICDSSVSTHDLKVKYLATLETLTKHYGAEIFETSMLLISSENEMNWFHSNDGGNVLYYEVMVTGNLGIQWRHKPNVVSVEKEKNKLKRKKLENKHKKDEEKNKIREEWNNFSYFPEITHIVIKESVVSINKQDNKKMELKLSSHEEALSFVSLVDGYFRLTADAHHYLCTDVAPPLIVHNIQNGCHGPICTEYAINKLRQEGSEEGMYVLRWSCTDFDNILMTVTCFEKSEQVQGAQKQFKNFQIEVQKGRYSLHGSDRSFPSLGDLMSHLKKQILRTDNISFMLKRCCQPKPREISNLLVATKKAQEWQPVYPMSQLSFDRILKKDLVQGEHLGRGTRTHIYSGTLMDYKDDEGTSEEKKIKVILKVLDPSHRDISLAFFEAASMMRQVSHKHIVYLYGVCVRDVENIMVEEFVEGGPLDLFMHRKSDVLTTPWKFKVAKQLASALSYLEDKDLVHGNVCTKNLLLAREGIDSECGPFIKLSDPGIPITVLSRQECIERIPWIAPECVEDSKNLSVAADKWSFGTTLWEICYNGEIPLKDKTLIEKERFYESRCRPVTPSCKELADLMTRCMNYDPNQRPFFRAIMRDINKLEEQNPDI
# notes: source: recombinant, purified
# B4: FLAG-CNF1 truncation mutant 1-720 (N2) (domain or fragment)
# chain: MGNQWQQKYLLEYNELVSNFPSPERVVSDYIKNCFKTDLPWFSRIDPDNAYFICFSQNRSNSRSYTGWDHLGKYKTEVLTLTQAALINIGYRFDVFDDANSSTGIYKTKSADVFNEENEEKMLPSEYLHFLQKCDFAGVYGKTLSDYWSKYYDKFKLLLKNYYISSALYLYKNGELDEREYNFSMNALNRSDNISLLFFDIYGYYASDIFVAKNNDKVMLFIPGAKKPFLFKKNIADLRLTLKELIKDSDKQQLLSQHFSLYSRQDGVSYAGVNSVLHAIENDGNFNESYFLYSNKTLSNKDVFDAIAISVKKRSFSDGDIVIKSNSEAQRDYALTILQTILSMTPIFDIVVPEVSVPLGLGIITSSMGISFDQLINGDTYEERRSAIPGLATNAVLLGLSFAIPLLISKAGINQEVLSSVINNEGRTLNETNIDIFLKEYGIAEDSISSTNLLDVKLKSSGQHVNIVKLSDEDNQIVAVKGSSLSGIYYEVDIETGYEILSRRIYRTEYNNEILWTRGGGLKGGQPFDFESLNIPVFFKDEPYSAVTGSPLSFINDDSSLLYPDTNPKLPQPTSEMDIVNYVKGSGSFGDRFVTLMRGATEEEAWNIASYHTAGGSTEELHEILLGQGPQSSLGFTEYTSNVNSADAASRRHFLVVIKVHVKYITNNNVSYVNHWAIPDEAPVEVLAVVDRRFNFPEPSTPPDISTIRKLLSLRYFKES
# notes: source: recombinant, purified
# Tests used:
# [1] = target: T1, MYC-tagged JAK1, full length (UniProt P23458 1-1154); assay: co-IP; in vitro, purified proteins; truncated FLAG-tagged CNF1 proteins precipitated, MYC-tagged JAK1 detected and normalised to the FLAG-CNF1 in the IP; conditions: both partners purified
# T1 construct: also called MYC-JAK1; MYC-tagged full-length JAK1; source: HeLa, transfected, in lysate
# [2] = target: T2, Cytotoxic necrotizing factor 1 (CNF1), recombinant FLAG-tagged, full length (uropathogenic Escherichia coli (UPEC), UniProt Q47106 1-1014); assay: co-IP; in vitro, purified proteins; truncated MYC-tagged JAK1 proteins precipitated, FLAG-tagged CNF1 detected and normalised to the MYC-JAK1 in the IP; conditions: both partners purified
# T2 construct: also called FLAG-CNF1; FLAG-tagged full-length CNF1; source: recombinant, purified (additionally by size exclusion chromatography)
Binder,binding result [1],binding result [2]
B1,binds,
B2,,binds
B3,,binds
B4,binds,

# Source: paper PMC9426534, “Interactions of Bacterial Toxin CNF1 and Host JAK1/2 Driven by Liquid-Liquid Phase Separation Enhance Macrophage Polarization” (mBio, 2022)
